In patent publication US20220259281A1 (SHATTUCK LABS, published 2022):

How the values were obtained:
human PD-L1 = molecular target: T1, human PD-L1 (human, UniProt Q9NZQ7 19-290); assay: flow cytometry binding to CHOK1/hPDL1 cells; supernatant as % of total reaction volume
T1 construct: whole, on cells; also called hPD-L1; PD-L1 on CHO-K1/hPD-L1 cells
Method: (§1) In another experiment, the CHO-K1/hPD-L1 cells were incubated with increasing amounts of the neat culture supernatant of the Jurkat parental or Jurkat/hPD-1-Fc-OX40L cells produced as discussed in Example 2. Binding was detected using flow cytometry and the MFI was calculated and plotted as a function of the amount of the neat culture supernatant of Jurkat parental or Jurkat/hPD-1-Fc-OX40L cells. […] Further, the CHO-K1/hOX40 cells were incubated with increasing amounts of the neat culture supernatant of the Jurkat parental or Jurkat/hPD-1-Fc-OX40L cells produced as discussed in Example 2. Binding was detected using flow cytometry and the MFI was calculated and plotted as a function of the amount of the neat culture supernatant of Jurkat parental or Jurkat/hPD-1-Fc-OX40L cells.

human OX40 = molecular target: T2, human OX40 (human, UniProt P43489 29-277); assay: flow cytometry binding to CHOK1/hOX40 cells; supernatant as % of total reaction volume
T2 construct: whole, on cells; also called hOX40; OX40 on CHO-K1/hOX40 cells
T2 sequence (looked up): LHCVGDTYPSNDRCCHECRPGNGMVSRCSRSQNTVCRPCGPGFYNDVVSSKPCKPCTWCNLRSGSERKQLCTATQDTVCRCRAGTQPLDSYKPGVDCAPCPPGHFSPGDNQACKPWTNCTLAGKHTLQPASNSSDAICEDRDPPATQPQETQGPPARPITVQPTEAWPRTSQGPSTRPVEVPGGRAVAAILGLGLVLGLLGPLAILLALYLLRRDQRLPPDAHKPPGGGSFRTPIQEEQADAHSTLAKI
Method: as §1

anti-human PD-1 antibody = assay: MSD dual binding assay; Coat: anti-hPD1, Detect: anti-hOX40L; 3-fold dilution series drawn as bars
Method: Concentrated, de-salted culture supernatant was prepared as follows: 40 million Jurkat parental cells, Jurkat cells expressing human PD-1-Fc-4-1BBL chimeric protein (Jurkat/hPD-1-Fc-4-1BBL), Jurkat cells expressing human PD-1-Fc-OX40L chimeric protein (Jurkat/hPD-1-Fc-OX40L), or Jurkat cells expressing human CSF1R-Fc-CD40L chimeric protein (Jurkat/hCSF1R-Fc-CD40L) were cultured in 60 mL of media for 48 hours. After this, the media were harvested and concentrated 50-75× using AMICON-15 50K columns. Concentrated supernatant was desalted over a ZEBA desalting column or directly dialyzed in PBS and used in experiments. The resulting supernatant was also termed “neat” supernatant.
The PD-1-Fc-OX40L chimeric protein harbors the extracellular domain of PD-1 protein domain at or near the N-terminus and the extracellular domain of OX40 Ligand (OX40L) protein domain at or near the C-terminus. To understand whether the extracellular domains of PD-1 and OX40L can simultaneously bind to respective antibodies, an anti-human PD-1 antibody was coated on a plate. Three-fold serial dilutions neat culture supernatants of Jurkat parental cells or Jurkat/hPD-1-Fc-OX40L cells were added to the plate. […] The plate was incubated to allow capture of any protein by the plate-bound anti-human PD-1 antibody. […] Binding was detected using the MSD platform.

[1] = molecular target: T3, universal-heterologous chimeric protein specific anti-Fc antibody; assay: sandwich ELISA: capture by anti-Fc antibody, detection by biotinylated anti-human OX40L antibody; Abs450nm against log[Agonist], nM, nM is from the x axis
[2] = molecular target: T3, universal-heterologous chimeric protein …; assay: sandwich ELISA: capture by anti-Fc antibody, detection by biotinylated anti-human OX40L antibody; concentrated culture media, the protein concentration in it is not given so the x values are nominal; the fitted value lies beyond the highest point shown (log about 2.8), nM is from the x axis

T1 sequence (Q9NZQ7 19-290): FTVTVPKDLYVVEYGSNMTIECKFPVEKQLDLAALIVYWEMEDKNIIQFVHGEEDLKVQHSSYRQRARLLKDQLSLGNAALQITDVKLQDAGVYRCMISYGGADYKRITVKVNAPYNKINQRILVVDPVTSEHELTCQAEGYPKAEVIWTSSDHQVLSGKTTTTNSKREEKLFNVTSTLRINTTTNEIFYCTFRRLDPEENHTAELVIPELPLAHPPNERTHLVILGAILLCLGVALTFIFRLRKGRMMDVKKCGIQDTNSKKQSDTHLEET

B1: human PD-1-Fc-OX40L heterologous chimeric protein (Fc fusion)
chain: LDSPDRPWNPPTFSPALLVVTEGDNATFTCSFSNTSESFVLNWYRMSPSNQTDKLAAFPEDRSQPGQDCRFRVTQLPNGRDFHMSVVRARRNDSGTYLCGAISLAPKAQIKESLRAELRVTERRAEVPTAHPSPSPRPAGQFQSKYGPPCPPCPAPEFLGGPSVFLFPPKPKDQLMISRTPEVTCVVVDVSQEDPEVQFNWYVDGVEVHNAKTKPREEQFNSTYRVVSVLTVLHQDWLSGKEYKCKVSSKGLPSSIEKTISNATGQPREPQVYTLPPSQEEMTKNQVSLTCLVKGFYPSDIAVEWESNGQPENNYKTTPPVLDSDGSFFLYSRLTVDKSRWQEGNVFSCSVLHEALHNHYTQKSLSLSLGKIEGRMDQVSHRYPRIQSIKVQFTEYKKEKGFILTSQKEDEIMKVQNNSVIINCDGFYLISLKGYFSQEVNISLHYQKDEEPLFQLKKVRSVNSLMVASLTYKDKVYLNVTTDNTSLDDFHVNGGELILIHQNPGEFCVL
notes: Tested as secreted protein in Jurkat supernatant and as purified protein; also called hPD-1-Fc-OX40L; hPD1-Fc-OX40L
binding result (human PD-L1): binds | binding result (human OX40): binds | EC50 (read off the curve) (anti-human PD-1 antibody): ~0.08 µg/mL | EC50 [1]: 37.3 nM | EC50 [2]: 2690 nM
